Results from PMC5454392, “Selective BET bromodomain inhibition as an antifungal therapeutic strategy” (Nature Communications, 2017).
Where “and” joins values, the source holds several entries; their conditions need not be identical. Equal entries are not always repeated. Where two headings read alike, the source gives them in different places.

Experiments:
[1] = target: T1, CaBdf1 BD1 (Candida albicans, UniProt Q5A4W8); assay: HTRF assay, inhibition of BD binding to H4ac4 peptide; design: species or system C. albicans; settings: HTRF, H4ac4 peptide, BETi, maximal concentration 10 μM
T1 construct: made in house; host or cells: E. coli BL21(DE3)

[2] = target: T1, CaBdf1 BD1; assay: Isothermal titration calorimetry (ITC); format: binding; settings: ITC
Protocol: (§1) Proteins used for crystallization and for ITC. […] Cells were resuspended in buffer A (50 mM Tris-HCl pH 7.5, 300 mM NaCl, 10% glycerol, 25 mM imidazole, 5 mM β-mercaptoethanol and protease inhibitors) and lysed by sonication. The cleared lysate was incubated with Ni-NTA resin (Qiagen) and washed with buffer A containing 0.5 M NaCl. Proteins were eluted with 250 mM imidazole, dialysed overnight in the presence of His-tagged TEV protease against buffer A containing no imidazole and incubated with Ni-NTA resin to remove His-tagged species. Proteins were further purified on a Superdex 75 10/300 (GE Healthcare) column in 50 mM Hepes pH 7.5, 150 mM NaCl, 0.5 mM dithiothreitol (DTT). Proteins were concentrated to >20 mg ml^−1 on a Centricon device (Millipore) and used for ITC, TSA and crystallization experiments. […] Expression and purification were performed as above, except that buffer A was replaced by buffer B (50 mM Hepes pH 7.5, 500 mM NaCl, 5% glycerol, 5 mM imidazole and protease inhibitors) and gel filtration was performed in 10 mM Hepes pH 7.5, 500 mM NaCl and 5% glycerol.
(§2) Calorimetric experiments were performed on a NanoITC calorimeter (TA Instruments) at 25 °C while stirring at 250 r.p.m. All proteins were buffer exchanged by gel filtration into 50 mM Hepes pH 7.5, 150 mM NaCl, 0.5 mM DTT, except for SMARCA2 and SMARCA4A BDs, which were exchanged into 10 mM Hepes pH 7.5, 500 mM NaCl and 5% glycerol. […] Titrations consisted of an initial injection of 1.5 μl followed by 19 identical injections of 2.5 μl made at time intervals of 5 min. ITC data were corrected for the heat of dilution of injectant into buffer and analysed with software provided by the manufacturer using a single binding site model. The first data point was excluded from the analysis. Thermodynamic parameters determined from the ITC data are summarized in Supplementary Table 1.

[3] = target: T2, CaBdf1 BD2 (Candida albicans, UniProt Q5A4W8); assay: HTRF assay, inhibition of BD binding to H4ac4 peptide; design: made in house; host or cells: E. coli BL21(DE3)
[4] = target: T2, CaBdf1 BD2; assay: Isothermal titration calorimetry (ITC); format: binding; design: His tag with TEV site (N, cleaved yes); made in house; host or cells: E. coli BL21(DE3); settings: ITC
Protocol: as §1, §2

[5] = target: human Brd4 BD1 (Homo sapiens, UniProt O60885); assay: Isothermal titration calorimetry (ITC); format: binding; design: human Brd4 BD1 (residues 22–204); His tag with TEV site (N, cleaved yes); made in house; host or cells: E. coli BL21(DE3); settings: ITC, 25 °C
Protocol: as §1, §2

[6] = target: T3, CaBdf1 BD1 (Candida albicans, UniProt Q5A4W8); format: binding; settings: wild-type BD1; for CaBdf1 BD1 Normalized (0 to 100%) WT: normalized array signal; for CaBdf1 BD1 Raw data WT: peptide array signal;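 as to CaBdf1 BD1 Normalized (0 to 100%) WT: normalized to spotted c-myc peptide positive control signal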
T3 construct: made in house; host or cells: E. coli BL21(DE3)
T3 sequence (Q5A4W8 whole entry, looked up): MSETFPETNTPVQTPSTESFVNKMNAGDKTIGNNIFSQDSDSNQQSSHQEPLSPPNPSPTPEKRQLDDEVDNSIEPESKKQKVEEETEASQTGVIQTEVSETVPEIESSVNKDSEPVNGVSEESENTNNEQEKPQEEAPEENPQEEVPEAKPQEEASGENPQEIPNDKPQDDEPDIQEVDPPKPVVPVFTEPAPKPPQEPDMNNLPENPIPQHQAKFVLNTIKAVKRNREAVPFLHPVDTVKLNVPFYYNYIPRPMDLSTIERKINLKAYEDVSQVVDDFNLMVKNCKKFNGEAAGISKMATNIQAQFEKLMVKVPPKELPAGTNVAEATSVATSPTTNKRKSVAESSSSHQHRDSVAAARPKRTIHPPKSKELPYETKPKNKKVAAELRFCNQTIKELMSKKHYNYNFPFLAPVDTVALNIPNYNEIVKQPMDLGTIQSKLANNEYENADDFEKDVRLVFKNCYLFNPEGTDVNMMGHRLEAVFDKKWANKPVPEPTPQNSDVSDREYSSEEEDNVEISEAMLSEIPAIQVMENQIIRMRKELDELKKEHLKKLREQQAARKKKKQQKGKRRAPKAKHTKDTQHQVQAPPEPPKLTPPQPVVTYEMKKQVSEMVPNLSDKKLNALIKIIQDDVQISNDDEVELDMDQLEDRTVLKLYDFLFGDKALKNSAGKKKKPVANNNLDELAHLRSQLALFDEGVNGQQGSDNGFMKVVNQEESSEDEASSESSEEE
Protocol: (§3) In short, arrays were blocked and incubated with 1 μM of purified CaBdf1 BD1 or BD2. Arrays were incubated with recombinant BDs for 2 h at 4 °C in binding buffer (Tris-HCl 50 mM pH 7.4, NP-40 0.1%, NaCl 150 mM, glycerol 10%). […] Assays were performed in duplicate.

[7] = target: T4, CaBdf1 BD2 (Candida albicans, UniProt Q5A4W8); format: binding; settings: wild-type BD2; for CaBdf1 BD2 Normalized (0 to 100%) WT: normalized array signal; for CaBdf1 BD2 Raw data WT: peptide array signal;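 as to CaBdf1 BD2 Normalized (0 to 100%) WT: normalized to spotted c-myc peptide positive control signal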
T4 construct: made in house; host or cells: E. coli BL21(DE3)
T4 sequence (Q5A4W8 whole entry, looked up): T3 sequence (Q5A4W8 whole entry, looked up)
Protocol: as §3

[8] = target: T5, CaBdf1 BD1 Y248F (Candida albicans, UniProt Q5A4W8, Y248F); assay: Histone peptide microarray binding, YF mutant;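 as to CaBdf1 BD1 Normalized (0 to 100%) YF mutant: normalized to spotted c-myc peptide positive control signal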; design: species or system C. albicans; settings: YF mutant BD1; for CaBdf1 BD1 Normalized (0 to 100%) YF mutant: normalized array signal; for CaBdf1 BD1 Raw data YF mutant: peptide array signal
T5 construct: made in house; host or cells: E. coli BL21(DE3), inferred from the wild-type GST construct
Protocol: as §3, with “duplicate. Images were acquired on a Bio-Rad ChemiDoc XRS Imaging machine and data were quantified using the array analyser software provided by Active Motif.” for “duplicate.”

[9] = target: T6, CaBdf1 BD2 Y425F (Candida albicans, UniProt Q5A4W8, Y425F); assay: Histone peptide microarray binding, YF mutant;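 as to CaBdf1 BD2 Normalized (0 to 100%) YF mutant: normalized to spotted c-myc peptide positive control signal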; design: species or system C. albicans; settings: YF mutant BD2; for CaBdf1 BD2 Normalized (0 to 100%) YF mutant: normalized array signal; for CaBdf1 BD2 Raw data YF mutant: peptide array signal
T6 construct: made in house; host or cells: E. coli BL21(DE3), inferred from the wild-type GST construct
Protocol: as §3, with “duplicate. Images were acquired on a Bio-Rad ChemiDoc XRS Imaging machine and data were quantified using the array analyser software provided by Active Motif.” for “duplicate.”

[10] = system: 32 representative human (BET and non-BET) BDs; design: method as in earlier work; settings: cited from earlier work

T5 sequence (Q5A4W8 193-327 Y248F): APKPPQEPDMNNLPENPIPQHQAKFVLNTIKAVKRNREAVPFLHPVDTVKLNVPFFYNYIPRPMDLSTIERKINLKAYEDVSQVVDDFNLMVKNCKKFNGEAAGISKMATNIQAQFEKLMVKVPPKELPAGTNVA
T6 sequence (Q5A4W8 361-501 Y425F): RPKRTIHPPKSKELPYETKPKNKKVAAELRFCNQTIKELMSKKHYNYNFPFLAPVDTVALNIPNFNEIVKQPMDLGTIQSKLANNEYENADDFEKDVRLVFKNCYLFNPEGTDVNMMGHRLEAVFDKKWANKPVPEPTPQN

| Compound | CaBdf1 BD1 Normalized (0 to 100%) WT [6] [%] | CaBdf1 BD1 Raw data WT ([6]; first of two raw-data columns) | CaBdf1 BD1 Raw data WT [6] | CaBdf1 BD2 Normalized (0 to 100%) WT [7] [%] | CaBdf1 BD2 Raw data WT ([7]; first of two raw-data columns) | CaBdf1 BD2 Raw data WT [7] | CaBdf1 BD1 Normalized (0 to 100%) YF mutant [8] [%] | CaBdf1 BD1 Raw data YF mutant ([8]; first of two raw-data columns) | CaBdf1 BD1 Raw data YF mutant [8] | CaBdf1 BD2 Normalized (0 to 100%) YF mutant [9] [%] | CaBdf1 BD2 Raw data YF mutant ([9]; first of two raw-data columns) | CaBdf1 BD2 Raw data YF mutant [9] | other results |
| --- | --- | --- | --- | --- | --- | --- | --- | --- | --- | --- | --- | --- | --- |
| Cc1sc2c(c1C)C(c1ccc(Cl)cc1)=N[C@@H](CC(=O)OC(C)(C)C)c1nnc(C)n1-2 [JQ1, reference compound] |  |  |  |  |  |  |  |  |  |  |  |  | IC50 ([1]; IC50 values): > 10 µM; binding to CaBdf1 BD1 (in words) [2]: no binding was detected; IC50 ([3]; HTRF, H4ac4 peptide, BETi, maximal concentration 10 μM, read-out: IC50 values): ~10 µM; binding to CaBdf1 BD2 (in words) [4]: no binding was detected; N (stoichiometry) [5]: 1.00 ± 0.03; TΔS [5]: -2.935 kcal/mol; ΔH [5]: -12.8 ± 0.12 kcal/mol |
| COc1cc2c(cc1-c1c(C)noc1C)ncc1[nH]c(=O)n([C@H](C)c3ccccn3)c12 [IBET-151, reference compound] |  |  |  |  |  |  |  |  |  |  |  |  | IC50 ([1]; read-out: IC50 values): 0.303 ± 0.12 µM; IC50 [3]: 1.47 ± 0.09 µM |
| A Rme2s T Kme3 Q T A R Kme3 S T G G K A P R K Q | 0.254 | 0.003207 | 0.004276 | 0.481 | 0.01784 | 0.002745 | 0.797 | 0.007888 | 0.003772 | 0.537 | 0.00534 | 0.002427 |  |
| Cc1sc2c(c1C)C(c1ccc(Cl)cc1)=N[C@@H](CC(=O)NCCCCNC(=O)COc1cccc3c1C(=O)N(C1CCC(=O)NC1=O)C3=O)c1nnc(C)n1-2 (stereo partly drawn) [dBET1] |  |  |  |  |  |  |  |  |  |  |  |  | BROMOscan signal, percent of control ([10]; CREBBP, EP300, FALZ and SMARCA4): 25-35%; BROMOscan signal, percent of control ([10]; six BET BDs): 0%; BROMOscan signal, percent of control ([10]; the other two BET BDs): 0.25% and 1.6%; BROMOscan signal, percent of control ([10]; the remaining BDs): > 35% |
| CCOC(=O)Nc1cc(-c2ccc(C)c(NS(C)(=O)=O)c2)nn2c(C)nnc12 [Bromosporine, reference compound] |  |  |  |  |  |  |  |  |  |  |  |  | IC50 ([1]; read-out: IC50 values): > 10 µM; IC50 [3]: 0.313 ± 0.002 µM |
| A Rme2s T Kme3 Q T A R Kme1 S T G G K A P R K Q | 0.471 | 0.00481 | 0.005879 | 0.444 | 0.01441 | 0.005491 | 0.831 | 0.00823 | 0.002743 | 0.195 |  |  |  |
| A Rme2s T Kme1 Q T A R Kme3 S T G G K A P R K Q | 0.326 | 0.00481 | 0.003741 | 0.259 | 0.0151 | 0.001373 | 0.727 | 0.007202 | 0.002743 | 0.195 |  |  |  |
| COc1ccccc1S(=O)(=O)Nc1ccc2c(c1)CN(C)C(=O)N2 [PFI-1, reference compound] |  |  |  |  |  |  |  |  |  |  |  |  | IC50 ([1]; read-out: IC50 values): > 10 µM; IC50 [3]: ~10 µM |
| A Rme2s T Kme2 Q T A R Kme1 S T G G K A P R K Q | 0.544 | 0.006414 | 0.005345 | 0.444 | 0.01441 | 0.005491 | 0.762 |  | 0.005144 | 0.244 | 0.002427 | 0.003398 |  |
| A Rme2a T Kme3 Q T A R Kme2 S T G G K A P R K Q | 0.145 | 0.002672 | 0.003207 | 0.296 | 0.01579 | 0.001373 | 0.554 | 0.005487 | 0.006859 | 0.244 | 0.002427 | 0.003398 |  |
| A Rme2s T Kac Q T A R Kme1 S T G G K A P R K Q | 0.798 | 0.009621 | 0.005879 | 0.333 | 0.01304 | 0.004804 | 0.727 | 0.007202 | 0.002743 | 0.244 | 0.002427 | 0.002427 |  |
